Data as given in the DeepSol protein solubility set.

Assay: soluble on expression in E. coli; label from the status in PepcDB or PDB records

Row | Sequence | soluble on expression in E. coli
1 | EMRNLGGGEILHACPQESLDKPLPCIVFYHGFTSSKLVYSYFAVALAEAGFRVIMPDAPEHGARYQGDEAGRMQRFWPILQQNFREFPALREAIIAEGWLEGERLAVAGASMGGMTALGIMTHHPELNSVACLMGSGYFRSLSQTLFPSPDFDVDSLNEWDVSHQLASLARRPLLLWHGDADDVVPPEETFRLEQALRQGDLAARLTCVWQKGVRHRITPEALATTVAFFQQHL | not soluble
2 | MKVYIVEHAIGSFAYDEQGKLIDFVLSSKDLGKVVDSLLDNEKGIPLPTTIELIQKIKPEEVVVENEAEIPNLQQLGVKASYEIHNLGSKIFRESLPKIAIETKFASSENDLYSFLYEVSFEYTRRKLRTAASKRDLLAIQAIRAIDDIDKTINLFSERLREWYSIHFPELNKLVEDHELYASIVSKFGHRDEITNTGLDEIGVNKDLSTKILDASKKSIGADITDVDIRSIKMLSDTILELFRIRSELTDYVESVMKEVAPNVTALVGPTLGARLLSLAGSLEDLAKMPASTIQVLGAEKALFRALRKGGKPPKHGVIFQYPAIHTSPRWQRGKIARALAAKLAIAARIDAFSGRFIGDKLNEELKKRIEEIKTKYAQPPPRKPQEQKRKEEERKGKKGGREKRKGRR | soluble
3 | MVESENKDIEESGAEVDRRDVRSLVRKLSDNNWEIPKGHIPNMRVPGRLFVSEKLLEGIEPGTIDQIANVATLPGIQKYSMAMPDAHLGYGFAIGGVAAFDVEEGVISPGGVGFDINCGVRLIRTNLQKEDVVPHIKRLTDELFSNVPSGVGSKSRFKASDKELDSAFLEGAKWAVDAGYGVEADVEHCEGNGFLEGADTSHVSSKARNRGKPQLGTLGSGNHFLEVQYVDEIYDPEVASAFGLEEGQVTVMVHCGSRGAGHQICTDHLKELSQAVKRYGIEIPDKQLACAPAQSKEAQNYFKAMLCAANYAWANRQMITHWTRESFEKIFGRDADDMEMSLLYDVAHNVAKLEEHSIEGRKKEVYVHRKGATRAFPAGHPEVPSAYRDVGQPVLIPGSMGTPSFILCGSTESMDVSFGSACHGAGRVMSRAHAKKEFHGQSIKEDLEAHGITVRATHPSVIAEEAPGVYKSSSEVVNVVHELGIARKVARVIPLGVAKGLEHHHHHH | not soluble
4 | MAKVCYFTGRKTVSANNRSHAMNKTKRVAKPNLQKVTVLIDGKPKKVWASARALKSGKVERVLEHHHHHH | not soluble
5 | MQQLQNVIETAFERRADITPANVDTVTREAITHVIDLLDTGALRVAEKIDGQWVTHQWLKKAVLLSFRINDNQVMEGAETRYYDKVPMKFAGYDEARFQREGFRVVPPATVRKGAFIARNTVLMPSYVNIGAFVDEGTMVDTWATVGSCAQIGKNVHLSGGVGIGGVLEPLQANPTIIEDNCFVGARSEVVEGVIVEEGSVISMGVFIGQSTRIYDRETGEVHYGRVPAGSVVVSGNLPSKDGSYSLYCAVIVKKVDAKTRSKVGINELLRTID | not soluble
6 | MAHHHHHHMLPNHSCKGFVDAQGRVFVDGREYPMASGIVATEDVIQANIKAMANTIAKDYKSLSHRDVRLSPGTAATAEAAEAPISYDNPLIIISVLKGSYIFTSDFIRYLGDCGLPHVVDFVRLASYNSDTTSTGQISMLAGLRFENLRGKHVLIVEDVCDSGRTLRFLRDYIMEKFQPKSVKTLVMVNKEQAARKLDFDPEYFCLAGPNKYIVGYGFEVNDRYRDLRHIFILRDGEATRYPAKL | soluble
7 | MSLAVTLKDVAEACGVSYSTVSKALKNSQLVKPNTKQMIQQKALEMNYIPNHSARALVSKKSGTIGLIWPSVDRVAVTHLITEINLAIKSLGYVMFVSIDDVAAASKKFVEFGCDGIIIFDEDETTNLPPEIYNNVPVVAYGVDRDIPYPIVNVNHAEAMIIAIKELLAKGIDRIDYIGDIHTNDARQIAKKDAIANYCEQHHIQYRMIDSSGLNAIEAETSVKHFLQESSLAPGVICGSYDITVGTINAMGSDEQPIIYSYDNIPQIKKIDYPVQAIGVPTAEIAQQVVAILDKVIKGEPIENTYHLHPSLSHNQEGHHHHHH | soluble
8 | MDAWFEDTAMGRYVAKLEQDFFGRYLDSYRFSGMCAVQVGGPWLSLSEDVVCVPRDMSMSAENMALADVSADMLLFPHTLEGGVPSQILSEAHRILKPCGRLMLTGFNPYSLWGFSRWFDGERLPEKRFCLPLPELKRRLADVGFDIEFGKFMVYLPPVSSLGQIRFWRFMEKAGDRWWPQCAAVYGLVLVKRAAGVTPLPAWDGYLGGKALAAGAARVAD | not soluble
9 | MNDVDVLVVGAGALGLACAARLAEAGHGVLVAERERLVGSHTSSRNSEVIHAGLYYPPGSLKADLCLEGRERLYAWCARHGVGHRRIGKLLVAVEENERERLQALAANARACGVDDLMPLDGTTLRALEPQVRGVAALLSPSTGIIDSHAYLQSLQAVAERHGAQLALDTRVDRLERHAGGWRAEGQSVGEAFRLRAGWVVNAGGLFAQALAQRTEGLDPRLVPALHLCQGRYFSYSGRSPFRHLVYPMPEARTAGLGIHATLDLGGQLRFGPDVNYVDNLDYRVDESLRPAFAQVISRYFPGIDPRRLAAGYAGIRPKLGGPGEPAADFIIQTPAEHGLPGLVNLFGIESPGLTASLALAERVARALLEHHHHHH | not soluble
10 | MSLYSKDGENYFIVDAHVALWDARRENQRNIHGKQFIDCFYDYHRNLSPASELWPYEDFLYQGGERLMKDLFTDGYVDHAIFQPAHLGAFYNTGFGQTEEAFALTRKHPGMLTYNHCFDPRFEEAGLKQLREDAARFGLKGVKLYTAEWKGDSRGYKLSDPWTYRYLDACRELGIKNIHVHKGPTIRPLDRDAFDVADVDAAASDFTDLNFVVEHCGLPRLEDFCWIATQEPNVHAGLAVAIPFMHTRPRYFAQIIGELLYWLDEDRIQFSSDYALWTPRWIVEQFVDFRIPDDMTGEYPQLTVAQKKKILGLNAAAMYDIEVPAEGHHHHHH | soluble
11 | MSESFDCAKCNESLYGRKYIQTDSGPYCVPCYDNTFANTCAECQQLIGHDSRELFYEDRHFHEGCFRCCRCQRSLADEPFTCQDSELLCNDCYCSAFSSQCSACGETVMPGSRKLEYGGQTWHEHCFLCSGCEQPLGSRSFVPDKGAHYCVPCYENKFAPRCARCSKTLTQGGVTYRDQPWHRECLVCTGCQTPLAGQQFTSRDEDPYCVACFGELFAPKCSSCKRPIVGLGGGKYVSFEDRHWHHNCFSCARCSTSLVGQGFVPDGDQVLCQGCSQAGP | soluble
12 | LVIVTDPHQRIEWVNAAFEQQTGHSGPSVRGQPLCAVLQGEPAPGGCGDRLRAMLAEGRTARAEVEATAACGRRFWLDVSLQPLLDDEGALDGYMAVASDIT | not soluble
13 | MKIGDVEVRDDVFNVKVKKHVLWEVVKWQLAKRRQGTHSTKTRGEVAYSGRKILPQKGTGNARHGERGVNIFVGGGVAHGPKPRDYEYPLPKRVRKLGLKMALSDKARNNAIIFVDNIDLGKKPKTKKAIEFLKNLGVEKEKVLVVIPEKADVLYKSFRNLPNVRVLLPEGLNVYDVLWANKLVIQKDCLDRIYKKVEA | soluble
14 | GGVQLNFGGNFTYNKNEILSLGNVDVQKDARTIRMVGKEFNAFYGYKSDGIFQSKEEIANAPKYTMISNDRLIPGDIKLVDINGDGEINPDDKVILSSENPKYTFAFNLGARWKMFDINLFFQGAAGVSRYFTDEFYGEFNGDSGHPSNHWLGRWTPENPTNKWPRASKFRTYNLPETTCSDFWLVNTNYLRLKDIQVGFNVPKEWLQAVRLGSARIYYSGTNLLTFSKTPQGIDPEAPAGWGAYYPHVKTHSIGINITL | not soluble
15 | MSLTELTGNPRHDQLLMLIAERGYMNIDELANLLDVSTQTVRRDIRKLSEQGLITRHHGGAGRASSVVNTAFEQREVSQTEKKKAIAEAVADYIPDGSTIFITIGTTVEHVARALLNHNHLRIITNSLRVAHILYHNPRFEVMVPGGTLRSHNSGIIGPSAASFVADFRADYLVTSVGAIESDGALMEFDVNEANVVKTMMAHARNILLVADHTKYHASAAVEIGNVAQVTALFTDELPPAALKSRLQDSQIEIILPQEDALEHHHHHH | soluble
16 | RLLGAPVPVDENDEGLQRALQFAMAEYNRASNDKYSSRVVRVISAKRQLVSGIKYILQVEIGRTTCPKSSGDLQSCEFHDEPEMAKYTTCTFVVYSIPWLNQIKLLESKCQ | soluble
17 | MGSDKIHHHHHHMNVYEKGNGVILEGVTDFDPVHIFECGQCFRWHKQEDGSYTGVAKGRILNVKKENDKIYLNNTNLKEFNSIWYNYFDLGTDYTEIKNKLKNMDEYLNKATEFGWGIRILRQDGWEMLISFIISSNNRIPMIQRAIENLSRKFGKYIGEYEGNEYYAFPTPEELNKASQEEIRACQTGFRDKYIKSTTQAVIENNDEVSEYTNLSTEDCRKELLKFNGVGPKVCDCIALFGMQKYDSFPVDVWVKRVMQEFYIDEDMSLPKMRTYGIDKFKEMSGFAQQYLFYYARELGIGK | not soluble
18 | MDLDLIQDLPILNFPPAIKIRANTNRDDDGGGCTTPTSSDHKIPPTTATTPPPPPQKPRPPSTPSSLGIRSCKRKLMTSLSKYEIIVNKDEIERFFSSVYNQTMASSTTTAITVAKRRRSFRSCSRR | not soluble
19 | MAHHHHHHMPLPPLEEAPRSMTRRNYLVERNRLRVSAYAPTRRELEEEDIRMAQTREERRRNMLNSWKSQSMYNPDLTRPLPGGGPRSKRMKEAATLKNPNYYKIVKEEEAQLKAERTAMYRADVLQQLKDREEYLRKWREDEKAYVSSLVESNKEQARKLEEREREEARAEKEYMNRMRESNLRELEQKRMKEREREEYELSLIRTVQAREKEKAETEERRARDMKQMMRRENEEYHRSIKKKQKEDKAREEAELKAILEYNATLAERERQEQKQRRDQYKAEFEETIEKQKEFFRTHNYDEPPESIRERNEKAAAALALIKKEERLRLADRRREYRQELMQQIREKQEWQLTHIDGV | not soluble
20 | LLEKHGVVVRSSNYELYADLSERMMNVIGRFCDNQYIYSIDESFLYFDHYESCINDWHEYGHKIRKAIWKETRLPVGVGFGETATLSKAANHAAKKLSGFN | not soluble
21 | MRVLLVTGKLAEEMVRKYGKGADVKVYNIDIAAFITPSMLENEDFSGYDLVLVPGLTYSHNWEDFERRKGVKVRLGPIHAYDLQHVLKLIGKVEFSHKIPACRLVESLRAEETLREIDALDEDCAFEIGGVKVGGSSRMKVVAEIASFCDFDDLRAKIDHYTESGADIIDIGVPLEFDKEWLHKTLKIAVDHSKLPLSIDTFSSKAIEIAVKHGVDMVMSISMDNLKALDLIENQAVVVVERDIDGLLNLVERVGEKVERVIADPILDPPLKVAESIGRYAEFRRRDEKTPLLFGAGNVTELSDADSIGINALLAFIAEELKCNLLFTTEASPKTFGSVRELNIASYLAKAAKIRNSPPKDAGVSLLALKEKVRYEERVELDDFVRAEETREFVRDPLGDFIIQVVDGKIVCKHDRMTIVGEKAKEVADTAIKNNLLSRLDHAAYLGRELMKAEIAALLKKSYIQDRELNFGFYQK | not soluble
22 | AELLLSDNEDKKQRIKEEKQLKLVKWNFQAPTDEHISQLQTLLGNQAKVSLMSQLFHKDFKQHLAALDSLVRLADTSPRSLLSNSDLLLKWCTLRFFETNPAALIKVLELCKVIVELIRDTETPMSQEEVSAFVPYLLLKTGEAKDNMRTSVRDIVNVLSDVVGPLKMTPMLLDALKSKNARQRSECLLVIEYYITNAGISPLKSLSVEKTVAPFVGDKDVNVRNAAINVLVACFKFEGDQMWKAAGRMADKDKSLVEERIKRTGV | soluble
